Laboratory results from US7393448B2, “Method of binding a compound to a sensor surface” (Applied NanoSystems B.V., priority 2002, dated 2008).

How the values were obtained:
[1] = Immobilization of cholesterol oxidase on hydrophobin-coated glassy carbon electrode, current response to cholesterol; format: biochemical; conditions: GCE, phosphate buffer pH 7 (25 mM), cholesterol added
From the text: Immobilization of cholesterol oxidase on a glassy carbon electrode. […] The coated electrode was submerged in a cholesterol oxidase-containing solution (0.5 U/ml) for two hours and rinsed with water.
To overcome the poor solubility of cholesterol in water, the cholesterol was solubilized in isopropanol with Triton in phosphate buffer (Ropers, M-H. et al., 2001, Phys. Chem. Chem. Phys. 3:240-245). Upon addition of cholesterol, the immobilized cholesterol oxidase catalyzed the reaction and led to formation of hydrogen peroxide. The peroxide produced a small detectable current over the electrode which correlated to the concentration of cholesterol added.

[2] = Immobilization of electroactive molecules on HYDPt-1-modified electrodes (cyclic voltammetry); format: physicochemical; conditions: Q10 bound to GCE covered with HYDPt-1
Experimental: Electrochemical experiments. Voltammetry experiments were done at 20° C. in three-electrode arrangement, with a calomel reference electrode, platinum foil counter electrode and GE, GCE or TMFE as working electrodes. Eco Chemie AUTO-LAB PGSTAT 30 system was used as the potentiostat with an IBM PC and Eco Chemie software. In order to prepare the TMFE, a silver wire or silver disk electrode precleaned in concentrated perchloric acid was touched to a drop of mercury and cathodically polarized in 0.1 M KOH to obtain a shining and uniform layer of mercury, ca. 1 mm thick. The GE and GCE were polished on Buehler polishing papers and paste, and the GE was cleaned in concentrated nitric acid. The electrodes were coated with the self-assembled hydrophobin upon contact with the surface of solutions containing 2 μg of hydrophobin per 1 ml of 10 mM Tris-HCl buffer. The time of the hydrophobin self-assembly and the conditions of Q0, Q10 and diazobenzene adsorption on hydrophobin-coated electrodes are given below.
Hydrophobin as a “molecular glue” for immobilizing molecules on the electrode surface. In the present work, we checked the ability of HYDPt-1 to bind through adsorption to different types of electroactive molecules to electrode surfaces. […]
Curve 1 was recorded after adsorption of the diazobenzene for the same lapse of time, but on the bare GCE. […]

[3] = cited from earlier work
[4] = at 50 μg ml^−1; cited from earlier work

Molecule: cholesterol oxidase
- enzyme activity upon immobilization on the hydrophobin layer [1]: remaining active

Molecule: COC1=C(OC)C(=O)C(C/C=C(\C)CC/C=C(\C)CC/C=C(\C)CC/C=C(\C)CC/C=C(\C)CC/C=C(\C)CC/C=C(\C)CC/C=C(\C)CC/C=C(\C)CCC=C(C)C)=C(C)C1=O [Q10, ubiquinone 50]
- stability of ubiquinone reduction and oxidation signals [2]: remained unchanged for several weeks

B1: SC3: best characterized class I hydrophobin, of Schizophyllum commune (protein, UniProt P16933 25-136, looked up)
Class I hydrophobin SC3: GGHPGTTTPPVTTTVTVTTPPSTTTIAAGGTCTTGSLSCCNQVQSASSSPVTALLGLLGIVLSDLNVLVGISCSPLTVIGVGGSGCSAQTVCCENTQFNGLINIGCTPINIL
- water contact angle, hydrophilic side of SC3 membrane ([3]; hydrophilic side): 36 °
- water contact angle, hydrophobic side of SC3 membrane ([3]; hydrophobic side): 110 °
- maximal lowering of the water surface tension (from 72) [4]: 24 mJ m^−2
